{"source": "paper PMC9813358", "about": "“Insights into the GSDMB-mediated cellular lysis and its targeting by IpaH7.8” (Nature Communications, 2023)", "binders": {"B1": {"name": "IpaH7.8 protein (residues 23–565) (enzyme)", "chain": "SNEHYLRILTEWEKNSSPGEERGIAFNRLSQCFQNQEAVLNLSDLNLTSLPELPKHISALIVENNKLTSLPKLPAFLKELNADNNRLSVIPELPESLTTLSVRSNQLENLPVLPNHLTSLFVENNRLYNLPALPEKLKFLHVYYNRLTTLPDLPDKLEILCAQRNNLVTFPQFSDRNNIRQKEYYFHFNQITTLPESFSQLDSSYRINISGNPLSTRVLQSLQRLTSSPDYHGPQIYFSMSDGQQNTLHRPLADAVTAWFPENKQSDVSQIWHAFEHEEHANTFSAFLDRLSDTVSARNTSGFREQVAAWLEKLSASAELRQQSFAVAADATESCEDRVALTWNNLRKTLLVHQASEGLFDNDTGALLSLGREMFRLEILEDIARDKVRTLHFVDEIEVYLAFQTMLAEKLQLSTAVKEMRFYGVSGVTANDLRTAEAMVRSREENEFTDWFSLWGPWHAVLKRTEADRWAQAEEQKYEMLENEYSQRVADRLKASGLSGDADAEREAGAQVMRETEQQIYRQLTDEVLALRLSENGSRLHHS", "notes": "IpaH7.8, type III secretion effector and E3 ubiquitin ligase of Shigella flexneri; residues 23-565; synthesized fragment; Limits 23-565 are stated for the SEC experiment; source: E. coli BL21 (DE3), purified (Ni-NTA, anion exchange, SEC); not shown: His, N-terminal, cleaved"}}, "key": {"GSDMB (residues 1-411) [1]": {"molecular_target": "T1, GSDMB (residues 1-411) (human, UniProt Q8TAX9-1 1-411)", "T1 chain": "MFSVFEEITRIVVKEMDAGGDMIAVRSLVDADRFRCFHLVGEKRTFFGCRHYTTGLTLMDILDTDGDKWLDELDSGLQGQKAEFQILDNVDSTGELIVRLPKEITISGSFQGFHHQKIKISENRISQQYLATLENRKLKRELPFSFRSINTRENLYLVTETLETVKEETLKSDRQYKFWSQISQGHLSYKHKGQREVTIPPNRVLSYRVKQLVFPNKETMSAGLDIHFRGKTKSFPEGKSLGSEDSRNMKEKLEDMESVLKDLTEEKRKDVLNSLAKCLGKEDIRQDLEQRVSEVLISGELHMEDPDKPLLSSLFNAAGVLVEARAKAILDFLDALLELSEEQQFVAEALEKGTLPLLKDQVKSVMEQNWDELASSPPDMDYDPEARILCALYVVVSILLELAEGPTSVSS", "test": "ITC"}, "GSDMB (residues 1-411) [2]": {"molecular_target": "T1, GSDMB (residues 1-411)", "test": "ITC; 500 mM NaCl"}, "GSDMB (residues 1-411) [3]": {"molecular_target": "T2, GSDMB (residues 1-411) (human, UniProt Q8TAX9-1 1-411)", "T2 construct": "residues 1-411; For the crystal the complex was obtained by co-transforming the GSDMB and IpaH7.8 plasmids; limits 1-411 are stated for the crystallised protein; also called gasdermin B; WT GSDMB; source: E. coli BL21 (DE3), purified (Ni-NTA, anion exchange, SEC); not shown: His, N-terminal, cleaved; MBP, N-terminal, cleaved", "T2 sequence": "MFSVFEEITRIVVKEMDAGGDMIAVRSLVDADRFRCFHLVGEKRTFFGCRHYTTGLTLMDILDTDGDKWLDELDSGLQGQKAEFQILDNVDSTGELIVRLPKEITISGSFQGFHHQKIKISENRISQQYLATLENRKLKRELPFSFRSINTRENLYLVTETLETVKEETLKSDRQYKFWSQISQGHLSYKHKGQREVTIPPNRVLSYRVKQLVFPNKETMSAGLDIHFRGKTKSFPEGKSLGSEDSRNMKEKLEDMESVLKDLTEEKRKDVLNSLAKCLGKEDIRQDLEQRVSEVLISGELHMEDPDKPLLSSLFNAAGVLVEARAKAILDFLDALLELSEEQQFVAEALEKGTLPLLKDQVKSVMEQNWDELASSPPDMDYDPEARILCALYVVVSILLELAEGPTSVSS", "test": "ITC; MicroCal PEAQ-ITC, 25 °C; IpaH7.8 proteins injected into the cell containing GSDMB or GSDMD proteins; 25 mM Tris-HCl pH 8.0, 150 mM NaCl unless otherwise stated (one titration of IpaH7.8 into GSDMB in a high salt buffer)", "settings": "both partners purified"}, "[4]": {"molecular_target": "B1", "test": "ITC; MicroCal PEAQ-ITC, 25 °C; IpaH7.8 proteins injected into the cell containing GSDMB or GSDMD proteins; 25 mM Tris-HCl pH 8.0, 150 mM NaCl unless otherwise stated (one titration of IpaH7.8 into GSDMB in a high salt buffer)", "settings": "both partners purified"}}, "data": [{"binder": "N-terminal LRR domain (residues 23–264) of IpaH7.8 (domain or fragment) SNEHYLRILTEWEKNSSPGEERGIAFNRLSQCFQNQEAVLNLSDLNLTSLPELPKHISALIVENNKLTSLPKLPAFLKELNADNNRLSVIPELPESLTTLSVRSNQLENLPVLPNHLTSLFVENNRLYNLPALPEKLKFLHVYYNRLTTLPDLPDKLEILCAQRNNLVTFPQFSDRNNIRQKEYYFHFNQITTLPESFSQLDSSYRINISGNPLSTRVLQSLQRLTSSPDYHGPQIYFSMSD", "values": [{"measurement": "Kd", "setting": "GSDMB (residues 1-411) [1]", "result": 90, "unit": "nM"}]}, {"binder": "B1", "values": [{"measurement": "Kd", "setting": "GSDMB (residues 1-411) [1]", "result": 94, "unit": "nM"}, {"measurement": "Kd", "setting": "GSDMB (residues 1-411) [2]", "result": 163, "unit": "nM"}, {"measurement": "binding affinity in a high salt buffer against that in the standard buffer", "setting": "GSDMB (residues 1-411) [3]", "result": 0.5, "unit": "fold"}]}, {"binder": "human GSDMD (natural protein, also called hGSDMD; WT hGSDMD; source: E. coli BL21 (DE3), purified (same protocol as GSDMB); not shown: His, N-terminal, cleaved; MBP, N-terminal, cleaved) MGSAFERVVRRVVQELDHGGEFIPVTSLQSSTGFQPYCLVVRKPSSSWFWKPRYKCVNLSIKDILEPDAAEPDVQRGRSFHFYDAMDGQIQGSVELAAPGQAKIAGGAAVSDSSSTSMNVYSLSVDPNTWQTLLHERHLRQPEHKVLQQLRSRGDNVYVVTEVLQTQKEVEVTRTHKREGSGRFSLPGATCLQGEGQGHLSQKKTVTIPSGSTLAFRVAQLVIDSDLDVLLFPDKKQRTFQPPATGHKRSTSEGAWPQLPSGLSMMRCLHNFLTDGVPAEGAFTEDFQGLRAEVETISKELELLDRELCQLLLEGLEGVLRDQLALRALEEALEQGQSLGPVEPLDGPAGAVLECLVLSSGMLVPELAIPVVYLLGALTMLSETQHKLLAEALESQTLLGPLELVGSLLEQSAPWQERSTMSLPPGLLGNSWGEGAPAWVLLDECGLELGEDTPHVCWEPQAQGRMCALYASLALLSGLSQEPH", "values": [{"measurement": "binding result", "setting": "[4]", "result": "binds"}]}, {"binder": "hGSDMD S124R (natural protein, human, UniProt P57764 1-484, looked up, GSDMD, human, isoform 1 of UniProtKB P57764; construct as m34; also called hGSDMD bearing the S124R mutation; source: E. coli BL21 (DE3), purified (same protocol as GSDMB); not shown: His, N-terminal, cleaved; MBP, N-terminal, cleaved) MGSAFERVVRRVVQELDHGGEFIPVTSLQSSTGFQPYCLVVRKPSSSWFWKPRYKCVNLSIKDILEPDAAEPDVQRGRSFHFYDAMDGQIQGSVELAAPGQAKIAGGAAVSDSSSTSMNVYSLRVDPNTWQTLLHERHLRQPEHKVLQQLRSRGDNVYVVTEVLQTQKEVEVTRTHKREGSGRFSLPGATCLQGEGQGHLSQKKTVTIPSGSTLAFRVAQLVIDSDLDVLLFPDKKQRTFQPPATGHKRSTSEGAWPQLPSGLSMMRCLHNFLTDGVPAEGAFTEDFQGLRAEVETISKELELLDRELCQLLLEGLEGVLRDQLALRALEEALEQGQSLGPVEPLDGPAGAVLECLVLSSGMLVPELAIPVVYLLGALTMLSETQHKLLAEALESQTLLGPLELVGSLLEQSAPWQERSTMSLPPGLLGNSWGEGAPAWVLLDECGLELGEDTPHVCWEPQAQGRMCALYASLALLSGLSQEPH", "values": [{"measurement": "binding result", "setting": "[4]", "result": "binds"}]}]}
